Changes are numbered by the printed parent chain. Each block holds one binder with its values, some of them ahead of it.
Columns and labels:
FGFR3-IIIc [1] = target: T1, FGFR3-IIIc (human, UniProt P22607 23-375, limits assumed); test: blocking ELISA: FGFR3-IIIc-Fc captured on an anti-human Fc plate, antibody titrated, FGF-1 (with heparin) is the blocked ligand, bound FGF-1 read as OD450
T1 construct: also called human FGFR3-IIIc
T1 sequence: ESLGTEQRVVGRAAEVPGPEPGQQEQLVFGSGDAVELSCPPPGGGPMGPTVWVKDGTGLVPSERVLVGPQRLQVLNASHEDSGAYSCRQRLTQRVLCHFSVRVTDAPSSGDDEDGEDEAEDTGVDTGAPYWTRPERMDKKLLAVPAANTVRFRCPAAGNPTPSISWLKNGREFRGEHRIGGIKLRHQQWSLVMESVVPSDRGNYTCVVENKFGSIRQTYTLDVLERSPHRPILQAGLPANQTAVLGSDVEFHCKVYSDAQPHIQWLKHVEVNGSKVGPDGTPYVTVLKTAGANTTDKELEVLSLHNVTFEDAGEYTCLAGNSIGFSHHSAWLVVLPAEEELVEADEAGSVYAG
Experimental: (§1) The plate was washed 5 times before being added with the antibody and FGF ligand mixtures, which was prepared as 49 μL 100 ng/mL FGF ligand, 1 μL 25 mg/mL Heparin (Sigma-Aldrich) and 50 μL antibody dilutions. After shaking at RT for 2 h, the plate was washed 5 times. Bound ligand was detected by subsequent incubations at RT with 0.5 μg/mL biotinylated anti-FGF antibodies (R&D Biosystems) for 0.5 h, 1:2,500-diluted Streptavidin-HRP (Invitrogen) for 0.5 h and the TMB substrate until enough color development.

FGFR2-IIIc [2] = target: T2, FGFR2-IIIc (human, UniProt P21802 22-377); test: blocking ELISA: FGFR2-IIIc-Fc captured on an anti-human Fc plate, antibody titrated, FGF-1 (with heparin) is the ligand, bound FGF-1 read as OD450
T2 construct: also called human FGFR2-IIIc; FGFR2-IIIc-His
Experimental: as §1

FGFR1-IIIb = target: T3, FGFR1-IIIb (human, UniProt P11362-19 22-376, limits assumed); test: SPR
T3 construct: Soluble FGFR antigen in SPR
T3 sequence (looked up): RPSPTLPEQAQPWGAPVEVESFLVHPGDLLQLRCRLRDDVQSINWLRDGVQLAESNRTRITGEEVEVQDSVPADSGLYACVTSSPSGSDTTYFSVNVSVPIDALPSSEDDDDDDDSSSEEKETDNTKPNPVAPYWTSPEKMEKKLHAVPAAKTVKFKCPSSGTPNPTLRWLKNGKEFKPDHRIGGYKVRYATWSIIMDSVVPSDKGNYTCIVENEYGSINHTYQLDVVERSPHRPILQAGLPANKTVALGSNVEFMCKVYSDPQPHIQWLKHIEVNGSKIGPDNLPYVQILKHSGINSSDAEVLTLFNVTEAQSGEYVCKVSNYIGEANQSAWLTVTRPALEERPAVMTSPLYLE
Experimental: (§2) A saturated amount of anti-human Fc monoclonal antibody was immobilized onto a CM5 biosensor chip by following the product instructions. […] FGFR antigens of various concentrations were injected at a flow rate 30 μL/min. After each binding cycle, flow cells were regenerated using 3M MgCl₂. Kinetic analyses were performed using the T100 evaluation software to obtain the kinetic and affinity constants.
(§3) 1.3 variants were determined by capturing FGFR4-Fc and flowing the antibody Fab fragments (Table 12).

FGFR3-IIIc [3] = target: T1, FGFR3-IIIc; test: SPR
Experimental: as §2, §3

FGFR2-IIIb (D2D3) = target: T4, FGFR2-IIIb (D2D3) (human); test: SPR (Biacore)
T4 construct: also called human FGFR2-IIIb ECD (residue 140-369)
T4 chain: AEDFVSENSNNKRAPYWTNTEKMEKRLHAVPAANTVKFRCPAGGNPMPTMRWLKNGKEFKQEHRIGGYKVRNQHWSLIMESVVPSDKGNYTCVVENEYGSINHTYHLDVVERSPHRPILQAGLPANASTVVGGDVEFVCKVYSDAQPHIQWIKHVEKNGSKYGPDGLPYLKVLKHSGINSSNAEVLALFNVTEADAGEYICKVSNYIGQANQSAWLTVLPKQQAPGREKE

FGFR4 = target: T5, FGFR4 (human, UniProt P22455 22-369, limits assumed); test: blocking ELISA: FGFR4-Fc captured on an anti-human Fc plate, antibody titrated, FGF-19 (with heparin) is the ligand, bound FGF-19 read as OD450
T5 construct: also called human FGFR4; FGFR4-His
T5 sequence (looked up): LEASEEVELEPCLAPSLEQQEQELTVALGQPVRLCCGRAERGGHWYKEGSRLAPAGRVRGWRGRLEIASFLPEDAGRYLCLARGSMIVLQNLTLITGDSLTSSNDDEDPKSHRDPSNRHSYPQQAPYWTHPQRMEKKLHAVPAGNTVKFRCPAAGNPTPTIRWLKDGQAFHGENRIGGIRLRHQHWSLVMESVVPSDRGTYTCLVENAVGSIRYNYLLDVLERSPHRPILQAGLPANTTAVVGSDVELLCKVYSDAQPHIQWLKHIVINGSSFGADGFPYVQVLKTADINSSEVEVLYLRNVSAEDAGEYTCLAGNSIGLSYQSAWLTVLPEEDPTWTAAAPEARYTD
Experimental: as §1

FGFR3-IIIc [4] = target: T1, FGFR3-IIIc; test: SPR (Biacore T100), IgG captured by anti-human Fc, FGFR flowed
Experimental: as §2

FGFR4-Fc = target: T6, FGFR4-Fc (human, UniProt P22455 22-369); test: SPR, FGFR4-Fc captured, Fab flowed; FGFR4-Fc captured, Fab flowed
T6 sequence (looked up): T5 sequence (looked up)
Experimental: Later, the KD for the 2B. 1.3 variants were determined by capturing FGFR4-Fc and flowing the antibody Fab fragments (Table 12).

FGFR4-6xHis = target: T7, FGFR4-6xHis (human, UniProt P22455 22-369, limits assumed); test: SPR, IgG captured, FGFR4-6xHis flowed
T7 sequence: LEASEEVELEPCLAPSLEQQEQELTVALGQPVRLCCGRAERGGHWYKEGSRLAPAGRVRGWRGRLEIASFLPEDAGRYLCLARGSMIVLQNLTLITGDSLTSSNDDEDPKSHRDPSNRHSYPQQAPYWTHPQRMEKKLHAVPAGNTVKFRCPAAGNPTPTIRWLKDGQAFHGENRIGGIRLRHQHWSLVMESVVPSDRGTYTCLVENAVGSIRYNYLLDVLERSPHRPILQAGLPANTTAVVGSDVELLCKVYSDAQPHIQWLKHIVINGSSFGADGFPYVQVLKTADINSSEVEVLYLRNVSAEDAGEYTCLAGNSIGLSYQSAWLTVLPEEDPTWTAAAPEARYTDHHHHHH
Experimental: as §2, §3

FGFR3-IIIc [5] = target: T1, FGFR3-IIIc; test: surface plasmon resonance (Biacore)
FGFR2-IIIc [6] = target: T2, FGFR2-IIIc; test: SPR
Experimental: as §2, §3

T2 sequence (P21802 22-377 limits assumed): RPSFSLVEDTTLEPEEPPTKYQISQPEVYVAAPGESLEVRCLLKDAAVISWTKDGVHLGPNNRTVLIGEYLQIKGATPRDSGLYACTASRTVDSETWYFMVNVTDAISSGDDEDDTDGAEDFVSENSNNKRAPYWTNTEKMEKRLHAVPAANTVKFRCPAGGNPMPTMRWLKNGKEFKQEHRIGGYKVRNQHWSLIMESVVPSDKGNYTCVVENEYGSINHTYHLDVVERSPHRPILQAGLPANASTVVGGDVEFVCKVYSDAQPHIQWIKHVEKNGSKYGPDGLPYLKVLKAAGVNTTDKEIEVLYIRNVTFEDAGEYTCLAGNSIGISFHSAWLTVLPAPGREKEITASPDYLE

IC50 (read off the curve) (FGFR3-IIIc [1]): 2 to 3 nM
binding result (FGFR2-IIIc [2]): no binding (tested: 128 nM)
binding result (FGFR1-IIIb): no binding
Kd (FGFR3-IIIc [3]): 0.61 nM
binding result (FGFR2-IIIb (D2D3)): no binding (tested: 200 nM)
binding result (FGFR4): no binding (tested: 500 nM)
Kd (FGFR3-IIIc [4]): 0.61 nM
B1: R3Mab (antibody, human IgG1, kappa, V domains shown)
VH: EVQLVESGGGLVQPGGSLRLSCAASGFTFTSTGISWVRQAPGKGLEWVGRIYPTNGSTNYADSVKGRFTISADTSKNTAYLQMNSLRAEDTAVYYCARTYGIYDLYVDYTEYVMDYWGQGTLVTVSS
VL: DIQMTQSPSSLSASVGDRVTITCRASQDVDTSLAWYKQKPGKAPKLLIYSASFLYSGVPSRFSGSGSGTDFTLTISSLQPEDFATYYCQQSTGHPQTFGQGTKVEIKR
notes: IgG in SPR; also called parental anti-FGFR3 antibody

Kd (FGFR4-Fc): 32 nM
B2: Fab fragment of Mab 2B.1.3 (Fab, V domains shown)
VH: B1 VH with I51T, Y52H, P53L, T54G, N55D
VL: B1 VL
notes: Fab; also called 2B.1.3 Fab; Fab 2B.1.3

Kd (FGFR4-6xHis): 2.8 nM
Kd (FGFR3-IIIc [5]): 0.0663 nM
binding result (FGFR1-IIIb): no binding
Kd (FGFR2-IIIc [6]): 2.8 nM
B3: 2B.1.1 (antibody, human IgG1, kappa, V domains shown)
VH: B1 VH with I51Y, Y52W, P53A, T54W, N55D
VL: B1 VL
notes: Full IgG1/kappa chains

— patent US20160244525A1 (Genentech, published 2016)
